Measured values reported in patent US20130244253A1.

Target: TGF-β receptors on cultured rat primary hepatic stellate cells
Experiment: cell-based or functional assay

For “purified recombinant NS3 protein (scNS4A-NS3 protease with trx-His-S tag) (enzyme)”, the expression of the Collagen(I) α1 gene in cultured rat primary hepatic stellate cells was 6 times.
